Results as given in the supplement of paper PMC10567573.

B1: FUT8 (parent)
chain: YAHQPRTADEIPMEPGDIIGVAGN
B2: DLC1 (parent)
chain: AIQGISEKEKAEIEAKEACDWLRA

Variants of: B1
Assay: protein stability index of a GFP-peptide fusion (GPS, HEK-293T) (PSI 1-6); higher = more stable
Conditions: c terminus: a fixed tail appended
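Also: lentivirally expressed fusions sorted by FACS into six bins by GFP to DsRed ratio, PSI derived from sequencing read proportions per bin multiplied by bin number.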

Protein stability index of substitutions, site by site:
A8: K 3.88 | H 3.87 | C 3.44 | I 4.02 | R 3.89 | M 3.74 | T 4.24 | Q 4.25
M13: A 4.69 | Y 4.12 | G 4.52 | Q 4.71 | S 4.07 | C 3.9 | E 4.73 | V 4.68
A2: G 4.69 | Y 4.3 | W 3.63 | R 4.56 | L 4.67 | Q 4.09 | K 4.51 | V 2.39 | S 4.53 | H 3.59 | N 4.92 | M 4.38 | P 4.43
A22: G 4.01 | I 3.12 | S 3.92 | M 3.96 | K 4.4 | R 4 | C 3.14 | E 3.92 | H 3.97
P12: C 3.48 | K 3.96 | Q 4.47 | D 4.2 | M 3.58 | G 3.6 | V 3.72 | T 4.09 | A 4.23 | H 3.41 | Y 3.21
I11: Y 3.93 | K 4.27 | W 3.44 | H 4.06 | C 4.26 | E 4.37 | P 4.12 | D 4.65 | T 4.2
T7: H 3.66 | V 3.89 | E 4.84 | C 2.73 | P 3.97 | L 3.71 | K 3.56 | I 3.66 | S 4.12 | G 4.18 | A 4.18
D17: T 3.38 | I 2.57 | P 3.14 | Y 2.68 | L 2.3 | R 3.45 | H 3.29 | V 2.87
G23: D 4.24 | A 3.96 | V 3.58 | W 2.67 | C 3.12 | E 4.83 | T 3.87 | P 3.73 | N 3.63 | S 3.77
P5: K 3.61 | Q 4.12 | E 4.62 | H 3.85 | T 4.31 | C 3.72 | Y 3.48 | M 3.53 | V 3.92
G20: W 2.08 | N 4.29 | R 3.56 | F 3.55 | S 3.86 | Y 3.37 | H 4.17 | C 3.73
P15: T 4.25 | R 4.23 | A 4.38 | W 2.2 | Q 4.25 | S 3.92 | I 3.5 | V 3.58
E10: N 3.73 | F 3.14 | K 2.9 | Q 3.08 | P 3.66 | D 4.18 | Y 3.06 | M 3.44 | C 3.25 | A 3.67
V21: F 3.8 | A 4.33 | W 3.03 | M 3.68 | Q 4.22 | E 4.62 | C 4 | T 4.69 | R 3.47 | G 4.29 | L 4.03
N24: Y 3.21 | C 3.57 | T 4.13 | D 4.71 | M 3.21 | H 3.39 | L 2.77 | G 3.43 | P 3.18 | F 2.46 | A 3.95
H3: I 4.2 | R 3.44 | A 4.56 | Y 3.45 | E 4.87 | W 3.11 | T 4.25 | M 3.99 | C 3.62 | P 2.92
I18: S 3.79 | V 4.47 | W 3.11 | N 4.03 | F 3.55 | Q 4.07 | Y 3.63
G16: R 3.66 | H 4.08 | C 3.5 | M 3.54 | E 4.26 | I 3.44 | Q 4.17 | V 3.92
Y1: M 5.19 | W 4.52 | F 3.6 | V 4.28 | D 5.19 | C 3.93 | G 5.17 | N 4.75 | H 5.37 | I 5.16
E14: D 3.75 | F 2.46 | A 3.41 | S 3.29 | L 2.88 | K 3.29 | T 3.9 | I 3.23
I19: R 4.4 | N 4.72 | P 4.61 | K 4.42 | T 4.16 | F 3.78 | S 4.55
Q4: E 4.61 | L 4.26 | S 3.8 | K 2.85 | T 3.72 | M 3.73 | N 4.07 | A 4.07 | V 3.5 | F 2.77
D9: K 3.51 | C 3.22 | T 3.57 | Y 2.62 | L 3.1 | I 2.6 | E 4.09 | Q 3.74 | V 2.52 | A 3.53
R6: Y 3.73 | A 4.48 | M 3.84 | G 4.65 | N 4.33 | S 4.46 | H 4.25 | F 3.46 | Q 4.47 | E 5.23 | I 4.12

Variants of: B2
Assay: as above
Conditions: c terminus: a fixed tail appended

Protein stability index, by site and new letter:
I13: W 4.26 | N 4.66 | K 4.89
W21: R 5.4 | E 5.01 | G 5.35 | N 5.1 | Q 5.47
K8: R 4.43 | Q 4.3 | G 4.6 | F 3.97 | S 3.98
I2: N 5.13 | R 4.78 | V 4.19 | E 5.26 | K 4.56
K16: Y 3.89 | T 4.87 | Q 4.44 | V 4.17
E9: K 3.97 | Y 3.48 | H 4.71 | I 3.29 | T 4.12 | A 4.19
A15: I 3.91 | H 4.33 | C 4.29 | W 3.65 | V 4.53 | D 4.4
A11: K 4.47 | C 4.32 | N 4.5 | E 4.87 | G 4.56
I5: N 4.79 | A 4.77 | C 4.66 | S 4.8
K10: C 4.54 | M 4.67 | I 3.8 | G 4.17
R23: Q 5.25 | L 3.87 | M 4.45 | C 4.73 | N 5.1
E12: C 3.85 | M 3.98 | A 3.89 | K 3.81 | P 4.63 | R 3.86
A1: E 4.74 | G 4.58 | N 5.11 | F 3.18
G4: V 3.9 | K 4.26 | P 4.33 | C 4.32 | Q 4.46
A24: G 4.78 | E 5.03 | M 3.52
E17: K 4.23
Q3: S 4.56 | E 5.07
L22: I 4.98 | G 4.98 | C 4.17 | V 4.73
S6: D 4.84 | E 4.99 | H 4.28 | M 4.04 | K 3.96
C19: W 4.45 | L 3.98 | T 5.12 | P 4.33 | Y 4.64
E14: D 4.58 | I 3.81 | W 2.86 | P 4.12 | F 3.78 | S 3.93
E7: H 3.86 | D 4.39 | R 3.62 | S 4.15 | M 3.67 | A 4.25 | G 4.22 | Y 3.63
D20: I 3.35 | K 4.05 | M 3.63 | N 4.3 | C 3.21
A18: L 4.2 | F 3.82 | D 4.89
